Reference: paper PMC8278646 (Microbial Cell Factories, 2021)

Assays:
[1] = biological target: T1, lysozyme from chicken egg white (chicken, UniProt P00698); assay: ELISA; antigen coated on MaxiSorp plates (5 ug/mL, carbonate buffer pH 9.6); antibody fragments purified from culture supernatant by cobalt-based immunoprecipitation, serially diluted; detection by anti-6x-His-tag antibody, OD450; room temperature; conditions: both partners purified
T1 construct: lysozyme C from chicken egg white; source: bought: Sigma-Aldrich

[2] = biological target: T2, lysozyme from chicken egg white (Lyz, with C-FLAG-tag) (chicken, UniProt P00698); assay: pull-down; Nan-His6 from culture supernatant held on cobalt-based Dynabeads and washed; supernatant with Lyz-FLAG (concentrated eight times) added in pull-down buffer (sodium phosphate pH 7.4, NaCl, Tween-20), 4 C, 30 min; imidazole elution; SDS-PAGE and anti-FLAG western blot; conditions: one partner purified
T2 construct: lysozyme from chicken egg white, synthesised codon-optimised gene with an alpha-factor leader; band of 15 kDa; probably the mature lysozyme behind the leader; A spacer EEGEPK may stand at the N-terminus; source: S. cerevisiae, secreted with alpha-factor leader; culture supernatant concentrated eight times; not shown: FLAG, C-terminal, kept
T2 sequence (P00698 19-147): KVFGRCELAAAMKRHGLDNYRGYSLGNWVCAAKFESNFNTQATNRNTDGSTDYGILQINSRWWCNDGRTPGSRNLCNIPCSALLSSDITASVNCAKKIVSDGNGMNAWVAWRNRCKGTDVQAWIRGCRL

T1 sequence (P00698 19-147): as above

binding result [1]: binds
binding result [2]: binds
B1: Nanobody (Nan, Camelid), single V-type domain against lysozyme (VHH)
VHH: DVQLQASGGGSVQAGGSLRLSCAASGYTIGPYCMGWFRQAPGKEREGVAAINMGGGITYYADSVKGRFTISQDNAKNTVYLLMNSLEPEDTAIYYCAADSTIYASYYECGHGLSTGGYGYDSWGQGTQVTVSS
notes: camelid VhH against lysozyme, 17 kDa; also called VhH; source: S. cerevisiae HA (also LA, MA), secreted with alpha-factor leader; used as culture supernatant and purified from it by cobalt-based immunoprecipitation; not shown: His6, C-terminal, kept
